Measured values reported in patent publication US20210355194A1 (TWIST BIOSCIENCE, published 2021).
“And” between values parts separate entries of the source, which are not always exact repeats. Equal entries are not always repeated. Where two headings read alike, the source gives them in different places.

How the values were obtained:
SARS-CoV-2 S1 protein [1] = target: T1, SARS-CoV-2 S1 protein (SARS-CoV-2, UniProt P0DTC2 16-685); experiment: Carterra SPR, DB format, S1
T1 construct: also called SARS-CoV-2 Spike Glycoprotein S1; S1 (subunit 1)

SARS-CoV-2 S1 protein [2] = target: T1, SARS-CoV-2 S1 protein; experiment: Carterra SPR, Fc capture, S1
SARS-CoV-2 S1 protein [3] = target: T1, SARS-CoV-2 S1 protein; experiment: phage ELISA screen on S1, mean
SARS-CoV-2 S1 protein [4] = target: T1, SARS-CoV-2 S1 protein; experiment: inhibitor ELISA, competitor ACE2
SARS-CoV-2 S1 protein [5] = target: T1, SARS-CoV-2 S1 protein; experiment: ELISA binding titration on coated antigen
[6] = target: T2, SARS-CoV-2 Spike Glycoprotein S1 (SARS-CoV-2, UniProt P0DTC2 16-685); experiment: ELISA, plate coated with S1
T2 construct: also called S1 Monomer

[7] = target: T3, SARS-CoV-2 antigen of the epitope binning (SARS-CoV-2, UniProt P0DTC2 16-685); experiment: epitope binning; competitor 2-2
T3 construct: also called S1

[8] = target: T3, SARS-CoV-2 antigen of the epitope …; experiment: epitope binning; competitor 2-5
[9] = target: T3, SARS-CoV-2 antigen of the epitope …; experiment: epitope binning; competitor 2-6
[10] = target: T3, SARS-CoV-2 antigen of the epitope …; experiment: epitope binning; competitor 2-8
[11] = target: T3, SARS-CoV-2 antigen of the epitope …; experiment: epitope binning; competitor 1-16
[12] = target: T3, SARS-CoV-2 antigen of the epitope …; experiment: epitope binning; competitor 1-32
[13] = target: T3, SARS-CoV-2 antigen of the epitope …; experiment: epitope binning; competitor 1-35
[14] = target: T3, SARS-CoV-2 antigen of the epitope …; experiment: epitope binning; competitor 2-11
[15] = target: T3, SARS-CoV-2 antigen of the epitope …; experiment: epitope binning; competitor CR3022
[16] = target: T3, SARS-CoV-2 antigen of the epitope …; experiment: epitope binning; competitor Acro mAb
S protein trimer = S protein trimer (SARS-CoV-2, UniProt P0DTC2 14-1208); experiment: ELISA, plate coated with S protein trimer
[17] = target: T4, SARS-CoV-2 S protein RBD, SPD-C5259 (SARS-CoV-2, UniProt P0DTC2 319-537); experiment: FACS, inhibition of S protein RBD binding to Vero cells
T4 construct: domain: RBD

SARS-CoV-2 S1 protein [18] = target: T1, SARS-CoV-2 S1 protein; experiment: phage ELISA screen on S1, mean; remark: listed apart in the source
SARS-CoV-2 S1 protein [19] = target: T1, SARS-CoV-2 S1 protein; experiment: inhibitor ELISA, competitor ACE2; remark: listed apart in the source
SARS-CoV-2 S1 protein [20] = target: T1, SARS-CoV-2 S1 protein; experiment: Carterra SPR, direct capture (DC), S1
human ACE2 [21] = target: T5, human ACE2 (human, UniProt Q9BYF1 18-740)
T5 sequence (Q9BYF1 18-740 limits assumed): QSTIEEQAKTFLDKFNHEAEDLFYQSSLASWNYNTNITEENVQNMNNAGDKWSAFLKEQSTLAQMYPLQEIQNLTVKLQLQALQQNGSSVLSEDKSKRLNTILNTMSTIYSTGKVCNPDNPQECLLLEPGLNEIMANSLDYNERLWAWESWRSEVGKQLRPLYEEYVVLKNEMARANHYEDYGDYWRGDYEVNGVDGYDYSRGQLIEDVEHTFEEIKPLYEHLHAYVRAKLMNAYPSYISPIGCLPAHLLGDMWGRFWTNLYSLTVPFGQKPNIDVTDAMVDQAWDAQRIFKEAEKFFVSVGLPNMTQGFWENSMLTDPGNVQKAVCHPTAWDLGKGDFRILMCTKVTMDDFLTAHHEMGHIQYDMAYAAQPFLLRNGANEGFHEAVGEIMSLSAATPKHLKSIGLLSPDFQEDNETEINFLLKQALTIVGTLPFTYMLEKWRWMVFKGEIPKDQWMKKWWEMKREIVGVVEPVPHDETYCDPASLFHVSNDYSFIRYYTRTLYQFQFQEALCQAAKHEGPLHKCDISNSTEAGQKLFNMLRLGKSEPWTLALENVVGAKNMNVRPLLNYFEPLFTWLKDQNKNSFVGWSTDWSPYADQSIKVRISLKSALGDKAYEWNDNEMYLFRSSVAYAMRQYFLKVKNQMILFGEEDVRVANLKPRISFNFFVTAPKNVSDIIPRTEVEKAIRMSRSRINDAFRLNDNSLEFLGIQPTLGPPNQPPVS

human ACE2 [22] = target: T5, human ACE2; remark: listed apart in the source

B1: 2-2 (antibody, V domains shown)
VH: EVQLLESGGGLVQPGGSLRLSCAASGFTFSRHAMNWVRQAPGKGLEWVSGISGSGDETYYADSVKGRFTISRDNSKNTLYLQMNSLRAEDTAVYYCARDLPASYYDSSGYYWHNGMDVWGQGTLVTVSS
VL: DIQMTQSPSSLSASVGDRVTITCRASQTINTYLNWYQQKPGKAPKLLIYSASTLQSGVPSRFSGSGSGTDFTLTISSLQPEDFATYYCQQSYSTFTFGQGTKVEIK
notes: also called variant 2-2
With B1 the Kd (SARS-CoV-2 S1 protein [1]) was 11.7 nM, the Kd (SARS-CoV-2 S1 protein [2]) was 58.3 nM and the “ELISA(Avg)” value (SARS-CoV-2 S1 protein [3]) was 23.4 fold over background. It also gave an IC50 (SARS-CoV-2 S1 protein [4]) of 3.6 nM and an EC50 (SARS-CoV-2 S1 protein [5]) of 0.612 nM.

B2: 2-2 (antibody, V domains shown)
VH: EVQLLESGGGLVQPGGSLRLSCAASGFTFSRHAMNWVRQAPGKGLEWVSGISGSGDETYYADSVKGRFTISRDNSKNTLYLQMNSLRAEDTAVYYCARDLPASYYDSSGYYWHNGMDVWGQGTLVTVSS
VL: DIQMTQSPSSLSASVGDRVTITCRASQTINTYLNWYQQKPGKAPKLLIYSASTLQSGVPSRFSGSGSGTDFTLTISSLQPEDFATYYCQQSYSTFTFGQGTKVEIK
With B2 the “S1 Monomer” value [6] was 0.13 nM, the epitope binning score [7] was 0 and the epitope binning score [8] was 0. The epitope binning score [9] was 2, the epitope binning score [10] was 0 and the epitope binning score [11] was 0. The epitope binning score [12] was 2, the epitope binning score [13] was 1 and the epitope binning score [14] was 0. The epitope binning score [15] was 0, the epitope binning score [16] was 0 and the “S Trimer” value (S protein trimer) was 0.64 nM. The IC50 [17] was 3 nM.

B3: 2-16 (antibody, V domains shown)
VH: EVQLLESGGGLVQPGGSLRLSCAASGFTFSSYAMSWVRQAPGKGLEWVSVISGSGGSTYYADSVKGRFTISRDNSKNTLYLQMNSLRAEDTAVYYCAREGYRDYLWYFDLWGQGTLVTVSS
VL: DIQMTQSPSSLSASVGDRVTITCTGTSSDVGSYDLVSWYQQKPGKAPKLLIYEGNKRPSGVPSRFSGSGSGTDFTLTISSLQPEDFATYYCCSYAGSSVVFGQGTKVEIK
notes: also called variant 2-16
In the case of B3, the “ELISA(Avg)” value (SARS-CoV-2 S1 protein [18]) is reported as 7.1 fold over background, the “ELISA(Avg)” value (SARS-CoV-2 S1 protein [3]) is reported as 7.1 fold over background and the IC50 (SARS-CoV-2 S1 protein [19]) is reported as 433 nM.

B4: 2-5 (antibody, V domains shown)
VH: EVQLLESGGGLVQPGGSLRLSCAASGFTFSDFAMAWVRQAPGKGLEWVSAISGSGDITYYADSVKGRFTISRDNSKNTLYLQMNSLRAEDTAVYYCAREADGLHSPWHFDLWGQGTLVTVSS
VL: DIQMTQSPSSLSASVGDRVTITCRASQSIHTYLNWYQQKPGKAPKLLIYAASALASGVPSRFSGSGSGTDFTLTISSLQPEDFATYYCQQSYSAPPYTFGQGTKVEIK
notes: also called variant 2-5
With B4 the Kd (SARS-CoV-2 S1 protein [1]) was 2.8 nM, the Kd (SARS-CoV-2 S1 protein [2]) was 1.9 nM and the “ELISA(Avg)” value (SARS-CoV-2 S1 protein [3]) was 30.8 fold over background. The IC50 (SARS-CoV-2 S1 protein [4]) was 4.2 nM and the EC50 (SARS-CoV-2 S1 protein [5]) was 0.133 nM.

B5: 2-4 (antibody, V domains shown)
VH: EVQLLESGGGLVQPGGSLRLSCAASGFTFSDFAMAWVRQAPGKGLEWVSAISGSGDITYYADSVKGRFTISRDNSKNTLYLQMNSLRAEDTAVYYCAREADGLHSPWHFDLWGQGTLVTVSS
VL: DIQMTQSPSSLSASVGDRVTITCRASQSIDTYLNWYQQKPGKAPKLLIYAASALASGVPSRFSGSGSGTDFTLTISSLQPEDFATYYCQQSYSAPPYTFGQGTKVEIK
For B5, the “S1 Monomer” value [6] was 1.58 nM, the “S Trimer” value (S protein trimer) was 10.2 nM and the IC50 [17] was 46.3 nM.

B6: 2-8 (antibody, V domains shown)
VH: EVQLLESGGGLVQPGGSLRLSCAASGFTFSDFAMAWVRQAPGKGLEWVSAISGSGDITYYADSVKGRFTISRDNSKNTLYLQMNSLRAEDTAVYYCAREADGLHSPWHFDLWGQGTLVTVSS
VL: DIQMTQSPSSLSASVGDRVTITCRASQSIDTYLNWYQQKPGKAPKLLIYAASALASGVPSRFSGSGSGTDFTLTISSLQPEDFATYYCQQSYSAPPYTFGQGTKVEIK
notes: also called variant 2-8
In the case of B6, the Kd (SARS-CoV-2 S1 protein [2]) is reported as 52.8 nM, the “ELISA(Avg)” value (SARS-CoV-2 S1 protein [3]) is reported as 32.4 fold over background and the IC50 (SARS-CoV-2 S1 protein [4]) is reported as 12.2 nM. For the same binder, the Kd (SARS-CoV-2 S1 protein [20]) was 33.4 nM and the EC50 (SARS-CoV-2 S1 protein [5]) was 0.08 nM.

B7: 2-8 (antibody, V domains shown)
VH: EVQLLESGGGLVQPGGSLRLSCAASGFTFSDFAMAWVRQAPGKGLEWVSAISGSGDITYYADSVKGRFTISRDNSKNTLYLQMNSLRAEDTAVYYCAREADGLHSPWHFDLWGQGTLVTVSS
VL: DIQMTQSPSSLSASVGDRVTITCRASQSIDTYLNWYQQKPGKAPKLLIYAASALASGVPSRFSGSGSGTDFTLTISSLQPEDFATYYCQQSYSAPPYTFGQGTKVEIK
In the case of B7, the “S1 Monomer” value [6] is reported as 1.52 nM, the epitope binning score [7] is reported as 0 and the epitope binning score [8] is reported as 0. For the same binder, the epitope binning score [9] was 1, the epitope binning score [10] was 0 and the epitope binning score [11] was 1. It also gave an epitope binning score [12] of 1, an epitope binning score [13] of 1 and an epitope binning score [14] of 1. For the same binder, the epitope binning score [15] was 0, the epitope binning score [16] was 1 and the “S Trimer” value (S protein trimer) was 7.08 nM. It also gave an IC50 [17] of 19.5 nM.

B8: 2-5 (antibody, V domains shown)
VH: EVQLLESGGGLVQPGGSLRLSCAASGFTFSDFAMAWVRQAPGKGLEWVSAISGSGDITYYADSVKGRFTISRDNSKNTLYLQMNSLRAEDTAVYYCAREADGLHSPWHFDLWGQGTLVTVSS
VL: DIQMTQSPSSLSASVGDRVTITCRASQSIHTYLNWYQQKPGKAPKLLIYAASALASGVPSRFSGSGSGTDFTLTISSLQPEDFATYYCQQSYSAPPYTFGQGTKVEIK
B8 was tested, and the “S1 Monomer” value [6] was 0.17 nM, the epitope binning score [7] was 0 and the epitope binning score [8] was 0. For the same binder, the epitope binning score [9] was 1, the epitope binning score [10] was 0 and the epitope binning score [11] was 1. It also gave an epitope binning score [12] of 1, an epitope binning score [13] of 1 and an epitope binning score [14] of 1. For the same binder, the epitope binning score [15] was 0, the epitope binning score [16] was 1 and the “S Trimer” value (S protein trimer) was 0.59 nM. For the same binder, the IC50 [17] was 4.4 nM.

B9: 4-17 (VHH)
VHH: EVQLVESGGGLVQPGGSLRLSCAASGQLANFASYAMGWFRQAPGKEREFVAAITRSGSSTVYADSVKGRFTISADNSKNTAYLQMNSLKPEDTAVYYCATTMNPNPRWGQGTLVTVSS
B9 was tested, and the IC50 (human ACE2 [21]) was 0.721 nM and the Kd (human ACE2 [22]) was 18.8 nM and 30.6 nM.

B10: 2-2 (second entry, printed after 2-19) (antibody, V domains shown)
VH: EVQLLESGGGLVQPGGSLRLSCAASGFTFSSYDMSWVRQAPGKGLEWVSVISGSGGSTYYADSVKGRFTISRDNSKNTLYLQMNSLRAEDTAVYYCAKGPLVGWYFDLWGQGTLVTVSS
VL: DIQMTQSPSSLSASVGDRVTITCTGTSSNVGSYNLVSWYQQKPGKAPKLLIYEGTKRPSGVPSRFSGSGSGTDFTLTISSLQPEDFATYYCCSYAGSSSFVVFGQGTKVEIK
For B10, the “ELISA(Avg)” value (SARS-CoV-2 S1 protein [18]) was 12.8 fold over background, the “ELISA(Avg)” value (SARS-CoV-2 S1 protein [3]) was 12.8 fold over background and the EC50 (SARS-CoV-2 S1 protein [5]) was 100 nM.

B11: 4-140 (VHH)
VHH: EVQLVESGGGLVQPGGSLRLSCAASGRTFSNAAMGWFRQAPGKEREFVARITWNGGSTFYADSVKGRFTISADNSKNTAYLQMNSLKPEDTAVYYCATTENPNPRWGQGTLVTVSS
Binder B11 has an IC50 (human ACE2 [21]) of 3.07 nM and a Kd (human ACE2 [22]) of 8.9 nM.

B12: 4-101 (VHH)
VHH: EVQLVESGGGLVQPGGSLRLSCAASGRTFSNAAMGWFRQAPGKEREFVARILWTGASRSYADSVKGRFTISADNSKNTAYLQMNSLKPEDTAVYYCATTENPNPRWGQGTLVTVSS
In the case of B12, the IC50 (human ACE2 [21]) is reported as 0.568 nM and the Kd (human ACE2 [22]) is reported as 5.8 nM.

B13: 4-54 (VHH)
VHH: EVQLVESGGGLVQPGGSLRLSCAASGRTFSDARMGWFRQAPGKEREFVGAVSWSGGTTVYADSVKGRFTISADNSKNTAYLQMNSLKPEDTAVYYCATTEDPYPRWGQGTLVTVSS
B13 was tested, and the IC50 (human ACE2 [21]) was 2 nM and the Kd (human ACE2 [22]) was 645 nM.

B14: 4-39 (VHH)
VHH: EVQLVESGGGLVQPGGSLRLSCAASGRTFSNAAMGWFRQAPGKEREFVARILWTGASRNYADSVKGRFTISADNSKNTAYLQMNSLKPEDTAVYYCATTENPNPRWGQGTLVTVSS
Binder B14 has an IC50 (human ACE2 [21]) of 1.15 nM and a Kd (human ACE2 [22]) of 17.5 nM.
